Measurements reported in patent publication US20050130287A1, “Purifying process of soluble proteins of the l.obliqua bristles through prothrombin activation: process for a partial determination of the amino acids sequence of the prothrombin activator; process for determining the prothrombin activation of fraction II, n-terminal and internal fragments sequences” (priority 2002, published 2005).

Columns and labels:
Abz-YQTFFNPRTFGSQ-EDDnp = tested on: T1, Abz-YQTFFNPRTFGSQ-EDDnp
T1 sequence: YQTFFNPRTFGSQ

prothrombin = prothrombin (UniProt P00734)
[1] = target: purified human fibrinogen (UniProt P02671)

Substance	Kcat (Abz-YQTFFNPRTFGSQ-EDDnp)	Kcat/Kmapp (Abz-YQTFFNPRTFGSQ-EDDnp)	Kmapp (Abz-YQTFFNPRTFGSQ-EDDnp)	Factor X activation, hydrolysis of S-2765 (Factor X)	Factor X activation, hydrolysis of S-2765 (p-nitroaniline formed) (Factor X)	Coagulation Time (S) of fibrinogen, with Ca2+ (prothrombin)	Coagulation Time (S) of fibrinogen, without Ca2+ (prothrombin)	Coagulation Time (S) of fibrinogen, without Factor II [1]
Lonomia obliqua Prothrombin Activator Protease (Lopap)	Kcat 5,32 sec^-1	Kcat/K mapp 1,2×106 M^-1 sec -1	Kmapp 4,5 µM	Lopap did not present capacity of activating factor X	When Factor X (30 nM) was added to the experiment, the substrate hydrolysis obtained was of 2,6 µM	60 s	240 s	Lopap + / F II - / FG +: >1200
Factor Xa	–	–	–	–	–	120 s	–	–
